Source: the nanobody polyreactivity screen of Harvey et al. (2022)

Assay: yeast display, Sf9 membrane polyspecificity reagent, FACS + sequencing; frameworks hold sequencing errors
Procedure, shortened: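 Nanobodies came from a synthetic yeast display library in Saccharomyces cerevisiae BJ5465, induced with galactose for 36–48 hours and stained for 1 hour at 4 °C with 10% biotinylated, detergent-solubilized Sf9 membrane reagent. Cells were enriched on streptavidin microbeads and then FACS-sorted, with low and high (top ~1%) gates set on anti-HA fluorescence for expression and streptavidin fluorescence for reagent binding. Each polyreactivity label reflects the gate a clone came from. Genes were amplified by colony PCR, sequenced by MiSeq 2 × 250 and filtered by CDR length.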

Sequence | polyreactivity (PSR sort gate)
QVQLVESRGGLVQAGGSLRLSCAASGSTFFHYAMGWYRQAPGKDRELVAAIDSNGGSTYYADSVKGRFTISRDNAKNTVYLPMNSLKPEDTAVYYCAADDLAEFEYDYWGQGTQVTVSS | low polyreactivity
QVQLVESRGGLVQAGGSLRLSCAASGSTFGWYAMGWYRQAPGKERELVASITSGGRTNYADSVKGRFTISRDNAKITVYLQMNSLKPEDTAVYYCAKRVYGSYSLYDYWGQGTQVNVSS | low polyreactivity
QVQLVESRGGLVQAGGSLRLSCAASGSTFKRYTMGWYRQAPGKESELVAAISTSSGSTYYADCVKGRFTISRDNAKNTVYLQMNSLKPDDSAVYYCAAVRHRQSYPKYNYWGQGTQVTVSS | high polyreactivity
QVQLVESRGGLVQAGGSLRLSCAASGTTINFYPMGWYRQAPGKERELVAAIRVSSGSTYYADSVKGRFTISRDNAKNNVYLQMNSLKPEDTAVYYCAAFLKDRSPRDGYDYWGQGSQVTVSS | high polyreactivity
QVQLVESRGGLVQAGGSLRLSCAASGYIINAYARGWYRQAPGKERELVAAISWSSDSTYYADSVKGRFTISRDIAKNTVYLQMNSLKPEVTAVYYCAAPYITPYGTYVFSSDYWGQGTQVTVSS | low polyreactivity
QVQLVESRGGLVQAGGSLRLSCAASGYILWRYAMGWYRQAPGKERELVASISSGVSTNYADSVKGRFTISRDNAKNTVYLQMYSLKPEDTAVYYCKTGRWLLGSMEYWGQGTEVTVSS | low polyreactivity
QVQLVESRGGLVQAGGSLRLSCAASGYTFYGYAMGWYRQAPGKERELVAAISGSGGSTYYADSVKGRFTISRDNAKNTVYLQMNSLKREDTAVYYCNKARYAIYRGDGYDYWGQGTQVTVSS | high polyreactivity
QVQLVESRGGLVQAGGSLRLSCAATGFTIYYYAMGWYRQAPGKERELVAAITGSGGSTYYADSVKGRFTISRDNAKNTVYLQMNSLKPEDTAVYYCARRYQVGWYYKYDYWGQGTQVTVSS | high polyreactivity
QVQLVESRGGLVQAGGSLRLSCADSGITFYVYTMGWNIKAPGKQRDLVASISGRGGSTYYAVSVKGRFTISRDNAKNTVYLQMNSLKPEDTAVYYCEAYRLRFWSMDYWGQGTQVTGSS | high polyreactivity
QVQLVESRGGLVQAGGSLRLSCPASGSIFPDNAMGWYRQAPGKERELDAAITRGGSTYYADSEKGRFTISRDNAKNTVYLQMNSLKPEDTAVYYCAVVRYYVSMDNWGQGTQVTVSS | high polyreactivity
QVQLVESRGGLVQAGGSLRLSCSASGRIFTTYAMGWYRQAPGKEREFVAAISRSGGSTYYADSVKGRFTISRDNAKNTVYLQMNSLKPEDTAVYYCAAVPTSNSLRSSFSYWGQGSQVTVSS | high polyreactivity
QVQLVESRGGLVQAGGSLSLSCAASGSTYNASAMGWYRQATGKERELVAAISSGGSTYYADSVKGRFTISRDNANNTVYLQMNSLKPEDTAVLYCAAVLTGHYYRFDYWGQGTQVNVSS | low polyreactivity
QVQLVESRGGLVQAGGTLRLSCAASGSTFAVNAMGWYRQAPGKERELVATITGSGGSTYYADSVKGRFTISRDNAKNTVYLQLNSLKPEDTAVYYCATDLVFDKRYWYDYWGQGTQVTVSS | low polyreactivity
QVQLVESRGGVVQAGGSLRLRCAASGRTFYRNVMGWSRQAPGKERELVAAITGDGGSTYYADSVKGRFTISRDNAKNTVYVQMNSQKAEVTAVYYCAASVYPQKRFFYWGHGTQVTVSS | high polyreactivity
QVQLVESRGVLVQAGGSLRLSCAASGSIFYFYAMGWYRQAPGKERELVAAISWSGGSTYYADSVKGRFTISRDTSKNTVYLQMHSLKPEDTPVYYCNAADYWYWENDYWGQGTQVTVSS | low polyreactivity
QVQLVESRGVLVQAGGSLRLSCAASGSTFTGYAMGWYRQAPGKERELVAGITGSGGSTYYADSVMGRFTISRDNAKITVYFQMNSLKPVDTAVYYCAAACWYHYVWLDYFWGQGTQVTVSS | low polyreactivity
